Reference: doi:10.1101/435982 (bioRxiv, 2018)

How the values were obtained:
[1] = biological target: His-Halo-XcpS62-396 (not stated | P. aeruginosa) (UniProt Q00513); experiment: negative-stain electron microscopy structure
[2] = biological target: the molecule itself; experiment: SEC-MALS

Sequence of His-Halo-XcpS62-396 (Q00513 whole entry, the tested form may be a part): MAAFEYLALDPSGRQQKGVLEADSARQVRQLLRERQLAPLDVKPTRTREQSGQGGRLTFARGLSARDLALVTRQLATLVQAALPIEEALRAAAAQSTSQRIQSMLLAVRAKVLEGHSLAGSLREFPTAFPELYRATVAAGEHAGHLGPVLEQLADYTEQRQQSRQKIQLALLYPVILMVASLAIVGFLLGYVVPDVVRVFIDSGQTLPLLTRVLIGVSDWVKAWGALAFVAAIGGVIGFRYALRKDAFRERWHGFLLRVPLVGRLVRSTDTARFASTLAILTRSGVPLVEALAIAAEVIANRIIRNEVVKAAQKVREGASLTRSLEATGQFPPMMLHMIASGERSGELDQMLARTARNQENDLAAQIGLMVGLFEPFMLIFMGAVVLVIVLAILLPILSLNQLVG

Molecule	stoichiometry N [1]	stoichiometry N [2]
His-Halo-XcpS62-396 (from UniProt Q00513 62-396) (domain or fragment)	2	
Strep-mCherry-XcpS56-396 (domain or fragment, P. aeruginosa, UniProt Q00513 56-396, looked up) RLTFARGLSARDLALVTRQLATLVQAALPIEEALRAAAAQSTSQRIQSMLLAVRAKVLEGHSLAGSLREFPTAFPELYRATVAAGEHAGHLGPVLEQLADYTEQRQQSRQKIQLALLYPVILMVASLAIVGFLLGYVVPDVVRVFIDSGQTLPLLTRVLIGVSDWVKAWGALAFVAAIGGVIGFRYALRKDAFRERWHGFLLRVPLVGRLVRSTDTARFASTLAILTRSGVPLVEALAIAAEVIANRIIRNEVVKAAQKVREGASLTRSLEATGQFPPMMLHMIASGERSGELDQMLARTARNQENDLAAQIGLMVGLFEPFMLIFMGAVVLVIVLAILLP		2
